Tested on: MS2 coat protein
Experiment: apparent KD of MS2 coat protein; designed switch direction (-1 OFF switch, 1 ON switch): 1; higher = weaker reporter binding
In short: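 On Illumina chips, designed RNA switches with common flanks were made by stalled E. coli RNA polymerase. Titrations with SNAP-549-labelled MS2 coat protein, doubling from 0.7 or 1.5 nM to 3 µM, were done with no input, with 200 uM small-molecule ligand, or with an oligonucleotide input. Apparent KD is the median per design over clusters, from curve fits of normalised cluster fluorescence.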

[1] = input ligand: microRNA oligo, concentration not stated
[2] = Eterna round: R95, input ligand: FMN 200 uM
[3] = Eterna round: R95, input ligand: microRNA oligo, concentration not stated
[4] = Eterna round: R95, input ligand: none

Row | Sequence | apparent KD of MS2 coat protein (input ligand: FMN 200 uM) | apparent KD of MS2 coat protein [1] | apparent KD of MS2 coat protein (input ligand: none) | apparent KD of MS2 coat protein [2] | apparent KD of MS2 coat protein [3] | apparent KD of MS2 coat protein [4]
1 | ACAUUUAGCUCGUGCACAUGAGGAUCACCCAUGUUCAGUUCACAGGAUAUCUAGUCAAACGGAUCGGAGAAGGGUGGCAGGAGC [Quceon] (Eterna round: R96, puzzle: Same State NG 3) | 39.9 nM | 121 nM | 123 nM | – | – | –
2 | GGUCCAGCCUGAGCUGGACAAGAGCAUGUACAUGAGGAUCACCCAUGUCAUGUACAAGCUUUUUGCUCGUCUUAAAA [JL mod - D87 - 2] (puzzle: Sensor for hsa-mir-208a) | – | – | – | 433 nM | 14.5 nM | 540 nM
3 | GUUGAGAAAUAAGGAUAUGCAUGGAAGACACAUGAGGAUCACCCAUGUGGGAGGGAAACCAGGAGGUAGAAGGUAUUGGGAAAC [AK SSNG2-V2-23.1] (Eterna round: R96, puzzle: Same State NG 2) | 43.8 nM | 28.7 nM | 49.1 nM | – | – | –
4 | GAAUAGUUGAGAGGAUAUGUAUUAUUGUAGGAUACAGAAGGUUUUAACAUGAGGAUCACCCAUGUAGGACUAUAUAUGUGAAUA [Parity 98 - Jieux - Same State NG 1] (Eterna round: R96, puzzle: Same State NG 1) | – | 11.7 nM | – | – | – | –
5 | GAGCCAGUCCGAGGAUAUUCGUAGGAACACAUGAGGAUCACCCAUGUGGGCUCAGAAGAGCCCUGGGAGAAGGCGGGCUGGCUC [SS-NG2-LRO18] (Eterna round: R96, puzzle: Same State NG 2) | 7.53 nM | 8.45 nM | 17.5 nM | – | – | –
6 | GAGGGACAUGAGGAUCACCCAUGUGGAAAAUUUAAAGGAUAUUAGUGUGGGAAAGUAGGGUAAGAAGGUUGAUUGG [JR_SS1_Sub085] (puzzle: Same State 1) | – | – | – | 50.2 nM | 54.2 nM | 91.3 nM
7 | UGGUACAUGCGAGGAUAUGGGUUGAUGACAUGAGGAUCACCCAUGUUAAAUAUGCCGAGAGGCACCUAGAAGGCGCAUGUACCU [MOD2 of JL SSNG1 3.99] (Eterna round: R96, puzzle: Same State NG 2) | 10.4 nM | 23 nM | 36.9 nM | – | – | –
8 | GCUUGCGGCGCAGGAUAUGGGUGCCUGUACAUGAGGAUCACCCAUGUUAAGGGACGGAUUACGAACCAGAAGGGCGUGGCGGGC [Ceerce] (Eterna round: R96, puzzle: Same State NG 2) | 47.8 nM | 108 nM | 430 nM | – | – | –
9 | GGCCAGAGUCAAGGAUAUGCUACCGUUUCGGUAGCAGAAGGUGAUCACAUGAGGAUCACCCAUGUAUACGCUGGGAAGCGGGCC [JL SSNG1 3.65] (Eterna round: R96, puzzle: Same State NG 1) | 163 nM | 155 nM | 119 nM | – | – | –
10 | UUAAUGAUGUUAGGAUAUACAUGAGGAAUCCUCGUAGAAGGAACAUGACAUGAGGAUCACCCAUGUAACGCUCCGUAGAGCGUA [JL SSNG1 1.17] (Eterna round: R96, puzzle: Same State NG 1) | – | 44.7 nM | – | – | – | –
11 | GCUCGUAUGAUGACCGACAUGAGGAUCACCCAUGUGUGUCGGUAGGAUAUCUAUAUUAAGGAUAUAGAGAAGGGCCGAACGAGC [SameState NG3 #17] (Eterna round: R96, puzzle: Same State NG 3) | 31.4 nM | 62.9 nM | 92.9 nM | – | – | –
12 | GUUACAUGAGGAUCACCCAUGUGUGUGUGGGAGUAAGUGUCUUAGGAUAUCUAUGAUUUAAGUUAAGAGAAGGAAGAUUGUUGU [SS-NG3-LRO01] (Eterna round: R96, puzzle: Same State NG 3) | 479 nM | 261 nM | 395 nM | – | – | –
13 | GCCCAUAGUAUAUGGGUACAAGCUUUUUAACAUGAGGAUCACCCAUGUACUCGUCUUAUGUGCAGUCCGUAGACUGC [JL-shm-2.17 Brourd mod] (puzzle: Sensor for hsa-mir-208a) | – | – | – | 86.4 nM | 14 nM | 82.3 nM
14 | GCUACCAUUGAUGCCUACAUGAGGAUCACCCAUGUAUGUAGGCAGGAUAUCGAUUGCAAAGCGAUCGAGAAGGGCUUAGGUAGC [Mat - Same State NG 3 - JL Mod - D93] (Eterna round: R96, puzzle: Same State NG 3) | 56 nM | 103 nM | 149 nM | – | – | –
15 | AAAUUACUCCGAGGAUAUGCAUGGCUUUGUGCCGCAGAAGGUGGAUCGACGGACAUGAGGAUCACCCAUGUACACUGUCCUAUA [Gerite] (Eterna round: R96, puzzle: Same State NG 1) | 26.4 nM | 34.7 nM | 46.9 nM | – | – | –
16 | AUUAAACAUGAGGAUCACCCAUGUCAACAAAGUCGAGGAUAUGGGCAAAUAUAAUAAGAACCAGAAGGCGAAUAAU [salish99_ss1_r3_059] (puzzle: Same State 1) | – | – | – | 28 nM | 190 nM | 227 nM
17 | AGAAAACAUGAGGAUCACCCAUGUAGAAAUAUGGGAGGAUAUACAAAGACGAAAGUCAGAGUAGAAGGCCUAAAAA [salish99-SS1-085] (Eterna round: R96, puzzle: Same State 1) | – | 46.6 nM | – | – | – | –
18 | AGUCCUGAAAAGAAAAUAAUAAGUGAUGUACAUGAGGAUCACCCAUGUCAUGUACAAGUUCUAUGCUCGUCAUAUAA [Sensorship 24 - Jieux - Sensor for hsa-mir-208a] (puzzle: Sensor for hsa-mir-208a) | – | – | – | 106 nM | 32.2 nM | 98.1 nM
19 | AUGAAGAAUUAAGGAUAUUGAUUACAUAUGUUUAACAUGAGGAUCACCCAUGUGGGUUGCGGUAUCGAGAAGGUAAAUUACAAG [Mat - same State NG 2 - JL mod - D87] (Eterna round: R96, puzzle: Same State NG 2) | 177 nM | 132 nM | 187 nM | – | – | –
20 | GCUAGGAAUAAAGCCAACAUGAGGAUCACCCAUGUAUGUUGGUAGGAUAUCGUAUGCAAAGCAUACGAGAAGGGCUAACCUAGC [Mat - Same State NG 3 - JL Mod - D69] (Eterna round: R96, puzzle: Same State NG 3) | 71.4 nM | 49.5 nM | 64.8 nM | – | – | –
21 | AAAGGAUGAUGUUACAUGAGGAUCACCCAUGUAGUGAUAACUAAGGAUAUCUGUUAAACAAGUUAAGAGAAGGUAGGAUCAUUA [AK SSNG3-V2-8] (Eterna round: R96, puzzle: Same State NG 3) | 42.8 nM | 35.6 nM | 60.8 nM | – | – | –
22 | GAGUAGGACUUACAGGAUAUAUGGAGGUUGACAUGAGGAUCACCCAUGUCUGAGUUGAGAGGAGGAUAGAAGGGUAUGGGAGGCG [JR_SS2_Sub030] (puzzle: Same State 2) | – | – | – | 23.4 nM | 16.5 nM | 22.4 nM
23 | UGGCCAGCCUGUGCUGGGCUUUAGCAUGUACAUGAGGAUCACCCAUGUCGUGUACAUGCUUUUUGCUCGUCUUUAAA [Photon Torp-06] (puzzle: Sensor for hsa-mir-208a) | – | – | – | 35.8 nM | 23.1 nM | 125 nM
